From US20040023887A1 (published 2004)
No end group written: not given here.

B1: B6Hα-3-F7-IR (peptide)
peptide: SRVAATKEKRPSDDPFYHKLSELLQGS
notes: library tags and phage coat protein not included
B2: S423 (peptide)
peptide 1: ESFYDWFERQLGK
peptide 2: ACAWPTYWNCG
modifications: not fully specified (bridges); cysteine pairing not given here; also: C-terminus of chain 2 linked to Lys13 of chain 1, bond at chain A 13 to a chain's C-terminus
B3: B6Hα-1-B3-IR (peptide)
peptide: GCITAENGAGDPFYHKLSELGGCS
notes: as for B1
B4: 20E2Bβ-3-C7-IR (peptide)
peptide: QSGSGDFYDWLSRLIRGNGDG
notes: as for B1
B5: B6Hα-3-E6-IR (peptide)
peptide: CGAKMTGTPNDPFYHKLSELLQRG
notes: as for B1
B6: B6Hα-3-E5-IR (peptide)
peptide: RCGDEEGWQENRRDDPFYHKLSELFGGC
notes: as for B1
B7: R20β-4-E8-IR (peptide)
peptide: VRGFQGGTVWPGYEWLRNAA
notes: tags and coat protein not included; Formula 10 (Group 6) clone
B8: 40F-4-D1-IGFR (peptide)
peptide: LSCLAYSRHGIWRPSTDLGLGRSVGEGSVSTRWRGYDWFE
notes: as for B7
B9: B6Hα-3-F1-IR (peptide)
peptide: CSMAAVAEAGDDDDPFYHKLSELCQGS
notes: as for B1
B10: 20E2A-3-A4-IGFR (peptide)
peptide: AGSVTSFYDAMEQLVATGTSA
notes: as for B1
B11: 20E2A-3-A3-IGFR (peptide)
peptide: GHYFGSFYDAIDQLVAGMLPG
notes: as for B1
B12: 20E2A-4-G11-IGFR (peptide)
peptide: MNVFVSFYDAIDQLVCQRIGC
notes: as for B1
B13: 40F-4-B1-IGFR (peptide)
peptide: GLDHSDAVGVHLGFAWPAQARGRWEAGGLEDTWAGYDWL
notes: as for B7
B14: B6Hα-2-D8-IR (peptide)
peptide: SSETAKMVTGTRDDPFYHKLSELVQGS
notes: as for B1

Assays:
[1] = molecular target: T1, soluble human insulin receptor-immunoglobulin heavy chain chimera (human, UniProt P06213 28-956, limits assumed); experiment: phage ELISA
T1 construct: extracellular domain; also called sIR-Fc; IR (prepared according to Bass et al., 1996); not shown: immunoglobulin heavy chain constant domains (Bass et al., 1996)

[2] = molecular target: T2, soluble IGF-1R (recombinant human IGF-1R extracellular domain, R&D Systems Cat. # 391-GR/CF) (human, UniProt P08069 31-935); experiment: phage ELISA
T2 construct: extracellular domain; Bought protein; coated on plates (phage ELISA, TRF) or Eu-labelled (TR-FRET); also called sIGF-1R; rhIGF-1R

[3] = molecular target: T3, Soluble IGF-1R (R&D Systems, Cat. # 391-GR/CF) (human, UniProt P08069 31-935); experiment: phage ELISA, receptor coated on plate; A405 over non-fat milk
T3 construct: extracellular domain; the precursor is cleaved into alpha and beta subunits; also called sIGF-1R

[4] = molecular target: T4, Insulin receptor prepared according to Bass et al., 1996 (soluble IR-immunoglobulin chimera) (human, UniProt P06213 28-956); experiment: as above
T4 construct: extracellular domain; also called sIR-Fc; soluble IR (Bass construct); not shown: immunoglobulin constant domains replacing the transmembrane and intracellular domains

[5] = molecular target: T5, human insulin receptor (HIR) (human, UniProt P06213-2 28-1370, limits assumed); experiment: 125I-insulin competition on purified HIR
T5 construct: Also used for the WGA-purified recombinant human insulin receptor of the kinase assay

Binder	ratio over background [1] [ratio]	ratio over background [2] [ratio]	ratio over background (IGF-1R) [3] [fold over background]	ratio over background (IR) [4] [fold over background]	Kd [5] [nM]
GAPVDQLHEDFYDWFVRQVSQAATG (on phage) [H2CA-2-B2-IGFR]	1	3.4			
TLRSPTFYDWLEMVLTHGQGG (on phage) [20E2B-1-A8-IGFR]	0.9	4.4			
SRAKVEAEMPDSGDPFYHKLSELLASG (on phage) [B6Hα-1-A3-IR]	0.8	2.6			
LRRQAPVEENFYDWFVRQVSGDRVGG (on phage) [H2CA-3-D7-IGFR]	0.8	3			
B1			3.1	1	
RGKTAAVIVGRPADPFYHKLSELLQGG (on phage) [B6Hα-3-E8-IR]	1.1	5.3			
SGAKVIVVTGDSGDPFYHKLSELLQGS (on phage) [B6Hα-2-C10-IR]	1.1	5.8			
NYRRQVFNGNFYDWFDRQVFSLVTPG (on phage) [H2CA-3-D8-IGFR]	1.8	7.2			
B2					62
TLDGGSFEEQFYDWFVRQLSYRTNPD (on phage) [H2CA-4-G11-IGFR]	2.5	9.5			
QAVQPGFHEEFYDWFVRQVSTGVGGG (on phage) [H2CA-4-H4-IGFR]	1	4.1			
B3			3.2	1.1	
PAGPCGFYCGLGLLLHGDQSP (on phage) [20E2B-4-H8-IGFR]	0.9	5.3			
APDPSDFQEIFYDWFVRQVSRMPGGG (on phage) [H2CA-1-A3-IGFR]	0.8	3.8			
GCAVVEEAERSRGDPFYHKLSELIQGC (on phage) [B6Hα-3-E7-IR]	1.3	5.6			
RCGRELYHSTFYDWFDRQVAGRTCPS (on phage) [H2CA-1-A7-IGFR]	0.6	2.2			
LSVALSFYDALGQLVAGEGRW (on phage) [20E2A-3-A12-IGFR]	1.1	4.3			
VNQSGSIHENFYDWFERQVSHQRGVR (on phage) [H2CA-4-F10-IGFR]	1	5.7			
SSCDGAGHESFYEWFVRQVSGCRSV (on phage) [H2CA-3-C6-IGFR]	1.2	5.6			
B4			3.1	1.5	
B5			2.3	1.2	
GGTKAVAKVGTRDDPFYHKLSELLQGS (on phage) [B6Hα-4-G8-IR]	1.7	6.1			
B6			2.9	1	

Binder	ratio over background [1] [ratio]	ratio over background [2] [ratio]	ratio over background (IGF-1R) [3] [fold over background]	ratio over background (IR) [4] [fold over background]	Kd [5] [nM]
MMVVDGFYDALHQLVVAQSLG (on phage) [20E2A-3-D10-IGFR]	1.8	6.9			
GFREGNFYEWFQAQVT (on phage) [E4Dα-4-H2-IR]	8.2	33.9			
QSPVGSSHEDFYDWFFRQVAQSGAHQ (on phage) [H2CA-3-D6-IGFR]	2.2	9			
VGTVAGFYDAIAQLVARASRV (on phage) [20E2A-3-C7-ICFR]	1.1	5.4			
RCQGTGFYTCIQELIGFGDPD (on phage) [20E2B-4-H9-IGFR]	0.9	5.2			
RFDPFYSYFVNLLGASA (on phage) [NNRPγ-4-A7-IR]	1.3	6.3			
GCVVEWQKWHGASDPFYHKLSELGGCS (on phage) [B6Hα-3-F10-IR]	1.9	8.8			
B7			34.9	3.6	
B8			4.6	0.3	
GIISQSCPESFYDWFAGQVSDPWWCW (on phage) [H2CA-4-G9-IGFR]	0.6	9.5			
RAGSSDFHEDFYEWFVRQVSLSLKGK (on phage) [H2CA-2-B9-IGFR]	1.7	7			
B9			2.4	1.3	
B10			2.5		
B11			3	1.5	
SSIGGGFHENFYDWFSRQLSQSPPLK (on phage) [H2CA-4-F7-IGFR]	0.8	3.2			
B12			3.3	1.3	
FYVQQWGHENFYDWFDRQVSQSGGAG (on phage) [H2CA-4-F1-IGFR]	0.9	3.5			
CCLLCRFQQNFYDWFVCQGISRLRPL (on phage) [H2CA-2-B4-IGFR]	1.1	4.1			
PPLASDLDVQFYGWFVQQVSPPGRGG (on phage) [H2CA-2-B3-IGFR]	1	3.8			
GCEVIVEEGDSADPFYHKLSELCQGS (on phage) [B6Hα-2-D1-IR]	1.3	5.4			
B13			3	0.2	
AETSVQVGWIRLQSVWPGEHWNTVDPFYHKLSELLRGSGA (on phage) [B6L-4-D7-IR]	1.4	4.8			
B14			3	1	
